The DeepSol protein solubility set

Test: soluble on expression in E. coli; label from the status in PepcDB or PDB records

| Sequence | soluble on expression in E. coli |
| --- | --- |
| MKLQKQLLEAVEHKQLRPLDVQFALTVAGDEHPAVTLAAALLSHDAGEGHVCLPLSRLENNEASNPLLATCVSEIGELQNWEECLLASQAVSRGDEPTPMILCGDRLYLNRMWCNERTVARFFNEVNHTIEVDEALLAQTLDKLFPVSDEINWQKVAAAVALTRRISVISGGPGTGKTTTVAKLLAALIQMADGERCRIRLAAPTGKAAARLTESLGKALRQLPLTDEQKKRIPEDASTLHRLLGAQPGSQRLRHHAGNPLHLDVLVVDEASMIDLPMMSRLIDALPDHARVIFLGDRDQLASVEAGAVLGDICAYANAGFTAERARQLSRLTGTHVPAGTGTEAASLRDSLCLLQKSYRFGSDSGIGQLAAAINRGDKTAVKTVFQQDFTDIEKRLLQSGEDYIAMLEEALAGYGRYLDLLQARAEPDLIIQAFNEYQLLCALREGPFGVAGLNERIEQFMQQKRKIHRHPHSRWYEGRPVMIARNDSALGLFNGDIGIALDRGQGTRVWFAMPDGNIKSVQPSRLPEHETTWAMTVHKSQGSEFDHAALILPSQRTPVVTRELVYTAVTRARRRLSLYADERILSAAIATRTERRSGLAALFSSRE | not soluble |
| MSIPVPMETGANSEAWKKANEALMKIQGGMSKGLNASNGNNNTGQNSWMNNSFSFPNPPSAYGQFGGGFHPSTWGSGPIVPPPPPQQSAVNATAQAAYNQASFNYAPPPPPQNWNNGYGRGRGGGANNWNQQQRPQQFQPFALNRKNNSSAFPHLTSTFVPQGGGPQPLMGVGRGRGVPAPGPAKPPPPSAQRYMERAFEAANTVEDRQKTQEYLQKRLFPMLNAGNAHMVNWDNEPLPHEKNYELAPAWTPANKLPHQANGFNRKKSPSRRRSDEMSNSGAAGGGGQMKRARRDSDGASSDSDNSDPLEKMHFSSMNQKKTKAQKKAEKAARKAAKKLQKQQTPQKVKNAWKVAGGDTEARREDRARRFAETLYNVSKPSVSVPQHYFRRGQVIRGTCQNIEKSFFRLTAAPNPSEVRPLEVLRLSLQNVRDKYRARAEYSYLTSQMRSIRQDLTVQVIRNEFTVEVYEINARISLENADREEFNKCQSQLKLLYSEIENCANQAEFVAYRLLYYIAMDNQIDINALLRELTPELKENDCVEFALNVRKAVTMNNYVKFFRLFKNAPRMCPYIMDLFVDRERKKALGIITKAFRPTITYKLIAEFLSMKESTLIDWLEEELKWTDVEVGGTFDPKIPRNI | not soluble |
| MFDKKLSSNDWHIQKVEMNHQVYDIETMLADSAFREHEEEQDSSLNTALPEDKTAIEAKEQEQKEKRKRWYELFKKKPKPKSSMGEFVFDQKENRIYGKGYCNRYFASYVWQGDRHIGIEDSGISRKVCKDEHLMAFELEFMENFKGNFTVTKGKDTLILDNQKMKIYLKTP | not soluble |
| MRTNSEIISLIQSKVEERKMSMSELARNVGIAKSTMSRYFNKTREFPLNRADDFAKALNISTEFLLGIDLNSEVDGSELLGIYRELEEQRRVIVLDTAKEQLEEQTKIINFSDKKTDIEDIFEVKGTTFAAAASGFGRGFEADDYDTYTVYTDEEPPHYDYAIGIRGDSMLPKYEQGDMLYIVDKGMSTYSGQLCIVVHNGNTYFKKVYTEHDGLRLVSLNKKYSDIFIGYPPAEDTYIKIYDVVGSFTPIEF | not soluble |
| MAIRIAINGFGRIGRSVLRALYESGRRAEISVVAINELASAEGMAHLLKYDSSHGRFAWDVRQECDSLYVGDDIIRLIHQSEIEQLPWSELGIDVVLDCSGVYGSREDGEAHVASGAKKVLFAHPGGHDLDATVVYGVNHQDLRAEHRIVSNASCTTNCIIPIIQLLDIAYGIESGTVTTIHSSMNDQPVIDAYHQDLRRTRAASQSIIPVDTKLAAGITRIFPKFCDRFEAISVRVPTINVTAIDLSVSVTHPVGVAEVNQLLQKAARGAFRGIVDYTELPLVSMDFNHDPHSAIVDGTQTRVSGQHLIKTLVWCDNEWGFANRMLDTTLAMAKSGF | not soluble |
| MGSDKIHHHHHHMENKYLVSIIVPVHNTADYLHKCIESLRSQTLQQIEIILVDNLSVDGSSEICDEYAKIDKRIKVLHLSIAGLSIARNAGMRIASAPYIGFVDSDDYVEPAMFEKMLDAMVQSDAEIAYCNFLLEYEFKPNESPYRNSGDIVIRDPKNVLQDMMMEKVSCSACTKLYKSGFLTSLQFPEGKNYEDRLVMYEWVALCKKVVWVDSPFYHYVERQTSICHTMSPMNLYHYFLAEYARMRFMEKYSLFEEEDLFKIRTRLIGTCLTIFKEILLKVNLREFKEPVKDMRQKMKEIAALPEDTYELKYRRRVRKIAYHWHLYYLTHFLFKKGGDS | not soluble |
| MVRIIVKNVSKVFKKGKVVALDNVNINIENGERFGILGPSGAGKTTFMRIIAGLDVPSTGELYFDDRLVASNGKLIVPPEDRKIGMVFQTWALYPNLTAFENIAFPLTNMKMSKEEIRKRVEEVAKILDIHHVLNHFPRELSGAQQQRVALARALVKDPSLLLLDEPFSNLDARMRDSARALVKEVQSRLGVTLLVVSHDPADIFAIADRVGVLVKGKLVQVGKPEDLYDNPVSIQVASLIGEINELEGKVTNEGVVIGSLRFPVSVSSDRAIIGIRPEDVKLSKDVIKDDSWILVGKGKVKVIGYQGGLFRITITPLDSEEEIFTYSDHPIHSGEEVLVYVRKDKIKVFEKN | soluble |
| MINVEQVFALDIGTRLVMGLIMEKAPGGYHIIARAQTEHRQRAMYDGQIHDIEEVAQAVQRVKEELEEKIKGKLHYVSVAAAGRALKTAVATAQKSELIPMIWEREDIFALEMEAVQQALREIQAEDEIIPYHCVGYSTIESLLEGQNLSSLSGQRGKEAQVKVIATFLPRTVIDGLTRVISKVGLEMRELTLEPIAAGRAAIPPDMRRMNLALVDVGAGTSDIALTKSGSFFAYGMVPMAGDEITERICQHFLVDFQTGEKIKRSLNTKTKVTFTDFLGMKTTVNKEEVLEQIQPVVLELAQKLADEILRLNQGNPHAIILIGGGSQTPLLAEVLSDLLELPRNRVGIQVRERIQGVSGEKSLKGPDAITPIGIGISTIEGEGLQYFSVHVNDLTVQIFELQLATVSDALLAAGITPRLLVGRPGSALTVELNGDIKVSKGQFSKPAQFFLNGEEVKLDHELKPGDKIQFIPAQDGENAQATFADLVPAIPEKKIKVNGESVVFTAQIFCNGRPVTRDGDVPDGAKITVFQNQTLKDLLHFLNDKQYSLSEIRYKINGEERVIPIHKEFYINQQKVALERMIKDGDDLVILVKEVYIKDLQLKPTPMVFYVNGQEVEYPPQIFRILSRGRVLSDQEKVVDGMELSVEGYDTMPLLSELLPYVNIPQDVPANARLSLKRNNQEAEFTTPLIPGDRIEIHWEQVASALLEHHHHHH | soluble |
| MGHHHHHHSHPPTAPDRATAVATASRLGPYVLLEPEEGGRAYQALHCPTGTEYTCKVYPVQEALAVLEPYARLPPHKHVARPTEVLAGTQLLYAFFTRTHGDMHSLVRSRHRIPEPEAAVLFRQMATALAHCHQHGLVLRDLKLCRFVFADRERKKLVLENLEDSCVLTGPDDSLWDKHACPAYVGPEILSSRASYSGKAADVWSLGVALFTMLAGHYPFQDSEPVLLFGKIRRGAYALPAGLSAPARCLVRCLLRREPAERLTATGILLHPWLRQDPMPLAPTRSHLWEAAQVVPDGLGLDEARE | not soluble |
| MRKAAVIGGSLGGLFAANLLLRAGWDVHVHERVHDELDGRGAGIVTHPELLDVLRRIGVAPTESIGIEVARRVTLDLDGSVLASRALPQLLTAWGRLFSILRTRFPAERYHRGQALESLEQDERRALLRFADGARAEVDLVVAADGLRSTLRQALLPQARPAYAGYVAWRGLVDEASLSERTRRELCPYFAFGLPAHEQMIAYPVAGTGSGAQDAARRFNFVWYRPADEHTTFRDMVTDAQGQAWMDGIPPPLIRPEIVAQARQAAAQVLAPQFGEVVAKTANLFFQPIFDLESPRLALGRVALLGDAAFVARPHCGMGVTKAAGDARALAYALAGTPDIGAALQAYEDERLPFGKFIVGHARDLGRYMQAQLRDDAEREMAERYRTPEAIMRETAVAPAWRLEHHHHHH | not soluble |
| GPGSMSTQLISGGEDGSHSQLMDLVLTNCSRPQSRASDNKQSTDGVVRLTSYVDLPNRDTLLPPIAEPKGGVPETSETLFPRRLGFDMIGVSSVSEEMLRDLYEVFDVHQSGGVERGVLREMMRSGFSHFGAPCSDRDLDRFFENVTPFRVRRRRTPKEGEVDVVPFNEFCVAFLSWLRR | soluble |
| GSTIAPEEHYTPEEASSREETAWDTAAEEVELLAADGAVHNQELFLECTTSPLIFASAMLNFGVHQILDTLCELAPQPHGRESDERAVEAATGAFDSSREVTDEFSGVVFKVQAGMDKNHRDSLAFMRVVSGEFDRGMQVTHAQSGRSFSTKYALTVFGRTRSTVESAFPGDIVGLVNAGSLAPGDTIFAGRKVQYPPMPQFAPEHFRTLRAKSLGKYKQFRKALDQLAAEGVVQILKNDARGDAAPVMAAVGPMQFEVMMARMQNEYNVETVADPIPYSVARRTTPETATELAKQRGVEIFTRTDGELVALFGDKWKLAFIEKEHPEFELLPMVAD | not soluble |
| MNKRYNTLNDYYRRIFGEKTFKVPIDAGFDCPNRDGTVAHGGCTFCTVSGSGDAIVAPEAPIRDQFYKEVDFMHRKWPDVKKYLVYFQNFTNTHDKVEVIRERYEQAINEPGVIGINIGTRPDCLPDVTILYLAELSQRLHVTLELGLQTTYEKTSKLINRAHSYQLYVETVKRVRDLAPKVEIVSHLINGLPGESHEMMLENVRRCVTDNDIDGIKLHLLHLMTNTRMQRDYHEGRLHLLSMEEYVNIICDQLEIIPKNIVIHRLTGDAPRDMLIGPMWSLNKWEVLNSIDREMERRNAYQGCKLEVNI | not soluble |
| MPPCPPQQNRNRLSQLPVGELGEMELTWQEIMSITELQGLNVPSETSFEPQAPTPYPGPLPPPTYCPCSIHPDAGFSLPPPSYELPASTPHVPELPYSYGNVAIPVSKPLTLSGLLNEPLPDHLALLDIGLPVGQPKPQEDPESDSGLSLNYSDAESLELEGMEAGRRRSEYADMYPVEYPYSLMPNSLAHPNYTLPPTETPLALESSSGPVRAKPAVRGEAGSRDERRALAMKIPFPTDKIVNLPVDDFNELLAQYPLTESQLALVRDIRRRGKNKVAAQNCRKRKLETIVQLERELERLSSERERLLRARGEADRTLEVMRQQLAELYHDIFQHLRDESGNSYSPEEYVLQQAADGAIFLVPRGTKMEATD | soluble |
| MSLERTTHQSLNGSWQFQPVAATLHVTPQLQAPAGGWKKINVPDNWYRQGHDISGYAWYQTRFALDAHNASRVAHLVFHGVDYSADVWLNDRYLGHHTGYFQPFEFDVTGLVKPGENQLRVLVNSPLEQPQDWSLHKRLVKGIFSHHDTRPGGAWSERGQEKNTGGIWAPVELQFADRAAVRQLQVTPRKQATEANPQQWVVSTEADIHHDVSHETSVTVEARILPENFKGASFAFKQSQTLQPGGNHIAFSFPVDNPALWWPYEYGHPNLYRLELSVKDASGKLLDQREQVFGVREVKVDDGLQWFINGRRMFLRGTNYIASQWLAEMTPDRYRRDLEMMQAAHINAVRVHAHVTGQDFYELCDRMGILVTQDFPLLWGYSDDPDFIAEARRQAKDMVQLLQRHPSIISWTMHNEPPWDSPWMAQKYPDYHPDINRRLDALLYEDVSKLDTLRVVRKESATKEHEWMGWYFDHWLAFSRPAPTPWSTEFGAQALPNLKSLERMFSKALLWPDTEAKWQVWEYHNFQRKETFEFAGVKQGGNIEEFIANSQHYQARLIQFAVENYRRQRYAPVSAVFQFMFVENWPSINWGIVDYWREPKAGYEALRVAYQPVLPSLEWKQDEYEAGASPRIGLWAINDTWSGFEHASYTVTLYREGKPLDMLKLPLEMLPDSGYKLRDYALPVLEKGQYEIKAEITGQDGKSMGRNQYRFSVKEGHHHHHH | soluble |
